Series [1] deals with MBP-ERSRC WT (Homo sapiens). Description: fluorescence anisotropy. The note with it: unmodified in vitro transcript; FA: 5 nM labeled tRNA, 25 mM Tris-HCl pH 8, 50 mM NaCl, 1 mM MgCl2, room temperature, 30 min.
Series [2] deals with MBP-ERS2.5W WT (Homo sapiens). Nature of the series: fluorescence anisotropy. The note with it: unmodified in vitro transcript; FA: 5 nM labeled tRNA, 25 mM Tris-HCl pH 8, 50 mM NaCl, 1 mM MgCl2, room temperature, 30 min.

On to tRNAGlu(TTC), for which the figures for the Kd in series [1] and in series [2] were 331 nM and 83.7 nM, respectively.

Values taken from paper PMC8511952.
